Data: patent US20080039411A1, “Use Of Resistin Antisense Oligonucleotides And/Or Sirna Molecules In The Treatment Of Rheumatoid Arthritis” (priority 2004, published 2008)

How the values were obtained:
[1] = system: human PBMC (resistin mRNA); assay: Stimulation of human PBMC with pro-inflammatory cytokines: resistin mRNA; assay type: cell-based; conditions: human PBMC (n=5), physiological concentrations (TNF-alpha 1-5 ng/ml)
Experimental: (§1) Peripheral blood mononuclear cells (PBMC) were prepared from heparinized blood of healthy individuals by separation on a Lymphoprep density gradient, washed, and resuspended in complete medium (Iscoves medium containing 1% L-glutamine, 5×10^−5 M ®-mercapto ethanol, […] of gentamycin sulphate, and 10% heat inactivated fetal calf serum). Culturing of PBMC was carried out in 24-well plates in a humidified atmosphere of 5% CO2 at 37° C. Culturing of monocytic cell line THP-1 (American Type Culture Collection, Manassas, Va.) was performed in 10-ml culture flasks (Nunclon) in […] medium supplemented with 10% FCS, 1% sodium pyruvate, gentamycin, and 2.5% Hepes in a humidified atmosphere of 5% CO2 at 37° C. For the experiments, 4-days old cells were harvested, washed, and adjusted to 1×10^6 cells/ml.
(§2) Total RNA from harvested cells was extracted by an RNAeasy kit (Qiagen, Inc.) and concentration was assessed spectrophotometrically at 260 nm. The gene expression was measured with TaqMan real time PCR (Applied Biosystems, Foster City, Calif.) as previously described (N&S, 2001). In short, total RNA extracts were treated with deoxyribonuclease I, and reverse transcribed with random nonamer primers and superscript II RnaseH-reverse transcriptase (life Technologies). After first strand cDNA synthesis, relative transcript cDNA levels were measured using oligonucleotide PCR primers and fluorogenic Taqman probes for test genes and 18S rRNA. […] For generation of the standard curve, serially diluted cDNA prepared from PBMC were used. Each TaqMan set span one or two exon joints in order to increase further both specificity of only RNA detection and efficiency of PCR reaction. Sequences were manually designed with using the PrimerExpress program (Applied Biosystems) to check them for secondary structure, melting temperature, GC content, primer to primer and/or to probe dimmers. The GenBank database was useful to avoid all known sites of oligonucleotide polymorphism and unspecific annealing of any nucleotide.

THP-1 cells = assay: Stimulation of monocytic cell line THP-1; assay type: cell-based, human
Experimental: as §1

[2] = system: knee joint of healthy mice; assay: Intra-articular injection of recombinant mouse resistin into knee joint, histology; assay type: in vivo
Experimental: Female NMRI mice, 6-8 weeks old, weighing 25-30 g, were purchased from ALAB (Stockholm, Sweden). The mice were bred and housed in the animal facility of the Department of Rheumatology, University of Göteborg, under standard conditions of temperature and light, and fed laboratory chow and water ad libidum. Mouse recombinant resistin (PeproTech EC, London, U.K.) was injected intra-particularly into the right knee joint (0.1-100 ng/knee) in the total volume of 20 μl. Control mice obtained equivalent volume of mouse albumin (Sigma, St. Louise, Mo.) in PBS buffer. Three days after the joint injection, the mice were sacrificed by cervical dislocation and the right knee was removed for histological examination.
Histological examination of joints was done after routine fixation, decalcification, and paraffin embedding of the tissue. Tissue sections of the knee joints were cut and stained with hematoxylin and eosin. All the slides were coded and evaluated blindly by two investigators with respect to synovial hypertrophy, the inflammatory cell infiltration of synovia, pannus formation, and cartilage and subchondral bone destruction. Synovial hypertrophy was defined as synovial membrane thickness of more than two cell layers. Intensity of in-flammatory cell infiltration of synovia was graded arbitrarily from 0 to 3.

NF-kappaB = assay: Electrophoretic mobility shift assay of nuclear extracts of resistin-stimulated PBMC; assay type: cell-based, human; conditions: PBMC stimulated with resistin
Experimental: Human PBMC (10^7) were stimulated with recombinant resistin (10-500 ng/ml) as described above. After 2 h, the stimulation was stopped with ice-cold PBS, cells were washed and resuspended in 2 ml hypotonic buffer (pH 7.9, containing 10 mM HEPES, 0.1 mM EDTA, 0.1 mM EGTA, 10 mM KCl, 0.75 mM spermidin, 0.15 mM spermin, […] and proteinase inhibitors, Complete MiniTab, Boehringer) and homogenised. Following centrifugation at 14000 g at 4° C. for 10 min, the supernatant was removed and the pellet was resuspended in the ice-cold extraction buffer (pH 7.9, 20 mM HEPES, 0.42 M NaCl, […], 1 mM EGTA, 25% glycerol, […] and proteinase inhibitors). Extraction proceeded at 4° C. under continuous rotation for 1 h. The supernatants containing nuclear extracts were collected after centrifugation 14000 g for 1 h at 4° C. Protein concentration in the extracts was determined using Bradford reagent (Sigma). Nuclear extracts were aliquoted and stored at −70° C. until use.
EMSA was performed as described elsewhere (Bergquist et al., 2000) with minor modifications. The sequences for oligonucleotides used for the assay were as follows:
Oligonucleotides were annealed at 56° C. The double stranded product was purified by elution from the electrophoretic gel. […]

synovial cells = assay: In vitro stimulation of synovial cells from patients with acute synovitis; assay type: cell-based, human; conditions: synovial cells from patients with acute synovitis (n=4)
Experimental: as §2

human PBMC = assay: Resistin stimulation of PBMC: cytokine gene expression and cytokine release; assay type: cell-based
Experimental: as §1
Freshly isolated PBMC were re-suspended to 2×10^6/ml and stimulated with recombinant human resistin (endotoxin concentration less than 0.1 ng/μg, PeproTech) at final concentration 10-1000 ng/ml. LPS (10 ng/ml) was used as a positive control in all the experiments. […] Cell stimulation period differed depending on the read-out system used. […]
Total RNA from harvested cells was extracted by an RNAeasy kit (Qiagen, Inc.) and concentration was assessed spectrophotometrically at 260 nm. The gene expression was measured with TaqMan real time PCR (Applied Biosystems, Foster City, Calif.) as previously described (N&S, 2001). […] After first strand cDNA synthesis, relative transcript cDNA levels were measured using oligonucleotide PCR primers and fluorogenic Taqman probes for test genes and 18S rRNA. […]
The level of IL-6 in synovial fluid and supernatants was determined by a bioassay. The effect of test samples on proliferation of the IL-6 dependent cell line B13.29 [21] was assessed following 72 h of culturing. The results were analyzed by incorporation of [3H]-thymidine (Radiochemical Centre, Amersham, Bucks, U.K.) during the last 4 h of incubation at 37° C. […]
Levels of TNF-α and IL-1B were assessed using an ELISA kit (R&D Systems) following manufacture's recommendations. […]

Q: For “IL-1b: pro-inflammatory cytokine used to stimulate PBMC”, which “induction of resistin mRNA” value [1] is on record?
A: The value was “less efficient”.

Q: How did the “induction of resistin mRNA” value [1] turn out when “IL-6: pro-inflammatory cytokine used to stimulate PBMC” was run?
A: Its value is “less efficient”.

Q: TNF-alpha was tested. Which “induction of resistin mRNA” value [1] did it give?
A: Its value is “could induce the expression of resistin”.

Q: What about the “expression of resistin gene” value (THP-1 cells; THP-1 cells) of the same molecule?
A: The value was “neither stimulation with TNF-a nor with LPS gave rise to the expression of resistin gene”.

B1: recombinant mouse resistin: Mouse recombinant resistin (PeproTech EC, London, U.K.) (protein, UniProt Q99P87 21-114, looked up)
Resistin: SSMPLCPIDEAIDKKIKQDFNSLFPNAIKNIGLNCWTVSSRGKLASCPEGTAVLSCSCGSACGSWDIREEKVCHCQCARIDWTAARCCKLQVAS
Q: How did the “histological analysis of injected joints” value ([2]; 0.1-100 ng/knee intra-articularly, three days after injection) turn out when B1 was run?
A: Its value is “signs of inflammation in the joint”.

Q: What about the “leukocyte infiltration and hyperplasia of synovia” value ([2]; single intra-articular injection, 1 ng/knee (50 ng/ml)) of the same molecule?
A: Its value is “sufficient to induce leukocyte infiltration and hyperplasia of synovia”.

B2: recombinant human resistin: recombinant human resistin (endotoxin concentration less than 0.1 ng/μg, PeproTech) (protein, UniProt Q9HD89 19-108, looked up)
Resistin: KTLCSMEEAINERIQEVAGSLIFRAISSIGLECQSVTSRGDLATCPRGFAVTGCTCGSACGSWDVRAETTCHCQCAGMDWTGARCCRVQP
Q: How did the “NF-kappaB translocation (EMSA)” value (NF-kappaB) turn out when B2 was run?
A: Its value is “induced translocation of NF-kappaB from cytoplasma to nucleus”.

Q: What about the “expression of TNF-alpha and IL-6 genes” value (synovial cells) of the same molecule?
A: Its value is “increased expression of TNF-alpha and IL-6 genes”.

Q: What about the cytokine production (THP-1 cells; THP-1 stimulated with resistin) of the same molecule?
A: Its cytokine production is “cytokine production in the pattern similar to PBMC”.

Q: What about the “IL-6 activity and levels of TNF-alpha and IL-1b in supernatants” value (human PBMC; PBMC, 48 hours of stimulation) of the same molecule?
A: Its value is “dose dependent increase”.

Q: What about the “cytokine gene expression (TNF-alpha, IL-6, IL-1b) in cell lysates” value (human PBMC; PBMC, resistin 10-1000 ng/ml) of the same molecule?
A: Its value is “induction of genes for pro-inflammatory cytokines”.

Q: And the “resistin gene expression in PBMC” value (human PBMC; resistin stimulation, detectable following 3 h up to 24 h)?
A: The value was “self-stimulation of resistin gene”.
